According to US20250270518A1, “NOVEL LUCIFERASES WITH IMPROVED PROPERTIES” (SVAR Life Science AB, priority 2021, published 2025):
Entries after “also recorded” stand apart in the source; their conditions may differ.

Experiments:
[1] = test system: HEK293 cells; assay: Rate of loss of luciferase activity in supernatant of transiently transfected HEK293 cells (FIG. 6); type: cell-based, human; settings: CMV promoter, room temperature, QuantiLuc Gold, compared with wild type Metridia longa luciferase
Description: FIG. 6A illustrates the rate of loss of luciferase activity in the supernatant of HEK293 cells following transient transfection of cells with the luciferases genes indicated, each under the control of a constitutive CMV promoter, and quantification of luciferase activity at increasing times at room temperature using a commercially available coelenterazine based “glo” substrate (QuantiLuc, Gold Invivogen).

[2] = test system: transfected mammalian cells; assay: Comparison of luciferase properties with other luciferases (Table 2); type: cell-based; settings: relative to other native or engineered luciferases reported in the literature
Description: FIG. 12 illustrates Table 2 showing a comparison of the properties of the luciferase encoded by the sequence set forth in SEQ ID NO: 1 and SEQ ID NO:2 and comprising the amino acid sequence encoded by the sequence set forth in AA1 and AA2 relative to those of other native or engineered luciferases reported in the literature.

[3] = test system: NFkB recognition sequence chimeric promoter in HEK293 cells; assay: Transient transfection of HEK293 cells, luciferase genes under NFkB responsive chimeric promoter, treated with TNF (FIG. 3B); type: cell-based, human; settings: compared with native Metridia longa luciferase gene; for luminescence / luciferase activity, relative light units (RLU): 100 ng/ml TNF for 6 hours at 37° C.
Procedure: FIG. 3B illustrates the response of HEK293 cells following transient transfection of cells with the novel Svar vector encoding either the wild type Metridia longa luciferase gene, or the Svar luciferase 1 or the Svar luciferase 2 genes each under the control of a chimeric promoter consisting of a SV40 minimal promoter and a 6-fold tandem repeat of the canonical NFkB recognition sequence and treated with 100 ng/ml of TNF[…] for 6 hours at 37° C. prior to quantification of the luciferase signal using a commercially available coelenterazine based “glo” substrate (QuantiLuc Gold, Invivogen).

[4] = test system: HEK293 cells; assay: Transient transfection of HEK293 cells, luciferase genes under constitutive CMV promoter, luciferase activity in supernatant (FIG. 3A); type: cell-based, human; settings: 18 hours at 37° C., QuantiLuc Gold, compared with native Metridia longa luciferase and other luciferases
Procedure: FIG. 3A illustrates the response of HEK293 cells following transient transfection of cells with the novel Svar vector encoding the luciferases genes indicated, each under the control of a constitutive CMV promoter, and co-transfection of cells with firefly luciferase under the control of a constitutive thymidine kinase (TK) promoter. Luciferase activity was quantified in the cell supernatant after 18 hours incubation of cells at 37° C. using a commercially available coelenterazine based “glo” substrate (QuantiLuc Gold, Invivogen). The cells were then lysed and firefly luciferase activity was quantified with BrightGlo (Promega).
A series of deletion mutants of the 5′ coding region of the native Metridia longa luciferase gene were designed in silico, synthetized in vitro and tested in transient transfection experiments. The nucleotide sequence of the native Metridia longa gene luciferase gene is illustrated in FIG. 1 and the amino acid sequence in FIG. 2.
A series of random mutation were introduced into the coding sequence of the native Metridia longa luciferase gene using oligonucleotides carrying a single or multiple mutations (FIG. 4). The oligonucleotides were synthetized in vitro and tested in transient transfection experiments in human the HEK293 cell line originally derived from human embryonic kidney cells grown in tissue culture (ATCC Catalogue CRL-1573).

[5] = test system: NFkB recognition sequence chimeric promoter in K562 cells; assay: K562 clonal cell lines stably transfected with NFkB responsive reporter gene, increasing TNF (FIG. 8); type: cell-based, human; settings: stable K562 clones, increasing TNF for 6 hours at 37° C., compared with firefly luciferase under same promoter
Description: FIG. 8 illustrates a comparison of the response of K562 cells stably transfected with either the luciferase gene comprising the sequence set forth in SEQ ID NO: 1 under the control of a chimeric promoter consisting of a SV40 minimal promoter and a 6-fold tandem repeat of the canonical NFkB recognition sequence and K562 cells stably transfected with the firefly luciferase gene comprising the open reading frame encoding the firefly luciferase protein under the control of the same NFkB responsive promoter and treatment of cells with increasing concentrations of TNF[…] for 6 hours at 37° C.
K562 cells originally derived from a chronic myelogenous leukemia (ATCC, catalogue number CCL-243) were transfected with either the Svar luciferase Luc-1 gene or firefly luciferase gene each under the control of a chimeric promoter consisting a SV40 minimal promoter and a 6-fold tandem repeat of the canonical NFkB recognition sequence. Stable clones were isolated and characterized. The clonal cell lines were treated with increasing concentrations of TNF[…] for 6 hours at 37° C. (FIG. 8).

[6] = test system: NFkB recognition sequence chimeric promoter in HEK293 cells; assay: Clonal HEK293 cell line stably transfected with NFkB responsive reporter gene, increasing TNF (FIG. 7); type: cell-based, human; settings: stable HEK293 clone, increasing TNF for 6 hours at 37° C., QuantiLuc Gold
Description: FIG. 7 illustrates the response of a clonal cell line of HEK293 cells stably transfected with a reporter gene comprising the sequence set forth in SEQ ID NO: 1 under the control of a chimeric promoter consisting of a SV40 minimal promoter and a 6-fold tandem repeat of the canonical NFkB recognition sequence treated with increasing concentrations of TNF[…].
HEK293 cells were transfected with the Svar luciferase Luc-1 gene under the control of a chimeric promoter consisting a SV40 minimal promoter and a 6-fold tandem repeat of the canonical NFkB recognition sequence and stable clones were isolated and characterized.

| Molecule | signal stability and/or signal duration [1] | toxicity for transfected mammalian cells [2] | luminescence / luciferase activity, relative light units (RLU) [3] | luminescence / luciferase activity, relative light units (RLU) ([3]; listed as Svar luciferase 1) | dynamic range relative to control samples in the absence of the pharmacology active substance [3] | luciferase activity / light output (brightness), relative light units (RLU) [4] | relative light units (RLU) values [5] | relative light units (RLU) and fold induction relative to control not treated with TNF [6] | luminescence / luciferase activity, relative light units (RLU) ([3]; listed as Svar luciferase 2) | luciferase activity / light output (brightness), relative light units (RLU) ([4]; listed as Svar luciferase 2) |
| --- | --- | --- | --- | --- | --- | --- | --- | --- | --- | --- |
| SVAR Luc-1: Engineered luciferase derived from Metridia longa luciferase, amino acid sequence SEQ ID NO: AA1, encoded by SEQ ID NO: 1 (protein, NO.1 (1)..(450) SEQ ID NO.1) MEAEAERGKSPGKKLPLAVIMEIEANAFKAGCTRGCLICLSKIKCTAKMKVYIPGRCHDYGGDKKTGQAGIVGAIVDIPEISGFKEMEPMEQFIAQVDRCASCTTGCLKGLANVKCSELLKKWLPDRCASFADKIQKEVHNIKGMAGDR | increased signal stability and/or signal duration | absence of toxicity | increased luminescence including increased light output (brightness) | enhanced luciferase activity relative to the wild type gene | higher dynamic range | increased light output (brightness) | markedly higher relative light units (RLU) values | high levels of both relative light units (RLU) and fold induction |  |  |
| SVAR Luc-2: Engineered luciferase derived from Metridia longa luciferase, isoleucine 106 to valine, SEQ ID NO: AA2, encoded by SEQ ID NO: 2 (protein, NO.2 (1)..(450) SEQ ID NO.2) MEAEAERGKSPGKKLPLAVIMEIEANAFKAGCTRGCLICLSKIKCTAKMKVYIPGRCHDYGGDKKTGQAGIVGAIVDIPEISGFKEMEPMEQFVAQVDRCASCTTGCLKGLANVKCSELLKKWLPDRCASFADKIQKEVHNIKGMAGDR | increased signal stability and/or signal duration |  | increased luminescence including increased light output (brightness) |  | higher dynamic range | improved activity relative to the native Metridia longa luciferase; also recorded: equivalent or slightly reduced activity relative to SVAR Luc-1 luciferase |  |  | enhanced luciferase activity relative to the wild type gene | increased light output (brightness) |
